# US8258256 (Johns Hopkins, dated 2012)
# Ends that are not written are not given here. * marks the point of attachment. Biotin = O=C1N[C@H]2[C@H](CS[C@H]2CCCCC(=O)*)N1
# Target: T1, His-PSMA (recombinant extracellular domain of prostate specific membrane antigen with amino-terminal His-6 … (UniProt Q04609 44-750, limits assumed))
# Experiment: cell-based or functional assay
# T1 sequence (Q04609 other isoform, or with tags, fused parts or gaps limits assumed): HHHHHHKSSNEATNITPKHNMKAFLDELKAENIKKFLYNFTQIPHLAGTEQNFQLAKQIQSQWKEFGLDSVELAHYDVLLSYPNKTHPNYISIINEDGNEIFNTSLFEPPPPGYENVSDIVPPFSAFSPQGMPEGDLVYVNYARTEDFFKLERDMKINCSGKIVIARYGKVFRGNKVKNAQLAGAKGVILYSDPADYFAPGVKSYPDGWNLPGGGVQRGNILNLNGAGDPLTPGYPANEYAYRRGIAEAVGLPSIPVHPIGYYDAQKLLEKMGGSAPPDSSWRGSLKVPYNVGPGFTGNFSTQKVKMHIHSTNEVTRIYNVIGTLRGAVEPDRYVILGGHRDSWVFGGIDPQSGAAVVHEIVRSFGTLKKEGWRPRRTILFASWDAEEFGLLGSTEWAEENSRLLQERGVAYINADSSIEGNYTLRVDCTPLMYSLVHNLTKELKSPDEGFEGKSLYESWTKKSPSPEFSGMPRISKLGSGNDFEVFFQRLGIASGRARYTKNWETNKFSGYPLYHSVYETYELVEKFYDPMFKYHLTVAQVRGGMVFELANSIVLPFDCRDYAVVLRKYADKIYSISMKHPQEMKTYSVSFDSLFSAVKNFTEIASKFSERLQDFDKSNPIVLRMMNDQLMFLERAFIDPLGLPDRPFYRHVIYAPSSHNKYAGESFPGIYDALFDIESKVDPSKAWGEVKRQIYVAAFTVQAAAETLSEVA
Binder,"inhibition of NAAG hydrolysis (NAALADase activity of PSMA), IC50 [µM]",fold better inhibition of PSMA than the monomer [fold]
WQPDTAHHWATL [monomeric WQPDTAHHWATL (SEQ ID NO:1) peptide (as used in the NAALADase assay)],23,–
"dimeric WQPDTAHHWATL (SEQ ID NO:1) peptide (as used in the NAALADase assay) (not fully specified (C-terminus); printed as (WQPDTAHHWATL)2-K; also: two copies of chain 1, C-termini joined to alpha and epsilon amines of branching Lys, C-terminal label on Lys not given here) peptide: WQPDTAHHWATL Lys",2.2,~10

# Target: T1, His-PSMA (recombinant extracellular …)
# Experiment: phage display selection in solution on His-PSMA, three rounds, capture with anti-His magnetic beads
# Description: Phage Library Screening—Peptides from the random M13 12-mer phage library were selected using His-tagged PSMA as the target, which was then captured using magnetically labeled Anti-His Tag Antibody. To remove non-specific phage binding to Anti-His antibody and other components of the magnetic separation system, the library was depleted 2 times with the His-MACS system. First Round of Screening: The final eluate from negative screening was incubated with 0.8 μgs of PSMA for 30 mins at room temperature. 50 uls of His-MACS were added and allowed to bind for 30 mins at room temperature. The incubation mixture was loaded onto a MACS column and washed twice with 1 ml of PBS/0.1% Tween 20 (PBST). Beads containing PSMA bound to phage were collected and amplified using PhD Kit protocol (NEB, Auburn, Mass.). Second Round Screening: Negative screening was repeated as above except with more BSA (0.5%) and longer incubation (1 hr at 4° C.). 10^10 pfu from the first round of screen were then incubated with PSMA in 1% BSA for 6 hrs at 4° C. His-MACS in 3% BSA were incubated for 30 mins and bound phages were collected and amplified as in round one. For third round screening the same method was used except Mouse IgG solution (100 μgs/ml) was added to the blocking solution. Individual phage were selected and sequenced after third round of screening.
# To decrease the selection of non-specific low affinity binders, phage screening was performed in solution and incorporated negative screening steps using other selection components (i.e. antibodies, magnetic beads, etc.) to remove many background binders (22). Thus, for this study the phage library was incubated with magnetically labeled Anti-His_6 (SEQ ID NO: 25) antibody […]. After negative selection steps, His-PSMA was incubated with the phage library and phages bound to His-PSMA were captured using magnetically labeled Anti-His_6 (SEQ ID NO: 25) antibody, FIG. 1.
row,Binder,binding result
1,"HNAYWHWPPSMT (not fully specified, Selected in three rounds on His-PSMA; not tested singly; not shown: M13 phage coat protein III) [selected phage with insert HNAYWHWPPSMT (SEQ ID NO 2)]",binds
2,"MIHTNHWWAQDR (not fully specified; also: displayed on M13 phage pIII, Selected in three rounds on His-PSMA; not tested singly; not shown: M13 phage coat protein III) [selected phage with insert SEQ ID NO 35]",binds
3,"HHEWTHHWPPPP (not fully specified; also: displayed on M13 phage pIII, Selected in three rounds on His-PSMA; not tested singly; not shown: M13 phage coat protein III) [selected phage with insert SEQ ID NO 32]",binds
4,"AWPENPSRRPFT (not fully specified; also: displayed on M13 phage pIII, Selected in three rounds on His-PSMA; not tested singly; not shown: M13 phage coat protein III) [selected phage with insert SEQ ID NO 33]",binds
5,"SLDSMSPQWHAD (not fully specified; also: displayed on M13 phage pIII, Selected in three rounds on His-PSMA; not tested singly; not shown: M13 phage coat protein III) [selected phage with insert SEQ ID NO 8]",binds
6,"WTHHHSYPRPLQ (not fully specified, Selected in three rounds on His-PSMA; not tested singly; not shown: M13 phage coat protein III) [selected phage with insert SEQ ID NO 30]",binds
7,"YRHWPIDYPPPP (not fully specified; also: displayed on M13 phage pIII, Selected in three rounds on His-PSMA; not tested singly; not shown: M13 phage coat protein III) [selected phage with insert SEQ ID NO 34]",binds
8,"GHLIPLRQPSHQ (not fully specified, Selected in three rounds on His-PSMA; not tested singly; not shown: M13 phage coat protein III) [selected phage with insert SEQ ID NO 29]",binds
9,"YTSPHHSTTGHL (not fully specified; also: displayed on M13 phage pIII, Selected in three rounds on His-PSMA; not tested singly; not shown: M13 phage coat protein III) [selected phage with insert SEQ ID NO 4]",binds
10,"TPLPSFTDGHHT (not fully specified; also: displayed on M13 phage pIII, Selected in three rounds on His-PSMA; not tested singly; not shown: M13 phage coat protein III) [selected phage with insert SEQ ID NO 36]",binds
11,"KSLSRHDHIHHH (not fully specified, Selected in three rounds on His-PSMA; not tested singly; not shown: M13 phage coat protein III) [selected phage with insert SEQ ID NO 14]",binds
12,"NSFPLMLMHHHP (not fully specified; also: displayed on M13 phage pIII, Selected in three rounds on His-PSMA; not tested singly; not shown: M13 phage coat protein III) [selected phage with insert SEQ ID NO 6]",binds
13,"QRSPMMSRIRLP (not fully specified, Selected in three rounds on His-PSMA; not tested singly; not shown: M13 phage coat protein III) [selected phage with insert SEQ ID NO 17]",binds
14,"NGFSHHAPLMRY (not fully specified, Selected in three rounds on His-PSMA; not tested singly; not shown: M13 phage coat protein III) [selected phage with insert SEQ ID NO 10]",binds
15,"KHMHWHPPALNT (not fully specified, Selected in three rounds on His-PSMA; not tested singly; not shown: M13 phage coat protein III) [selected phage with insert SEQ ID NO 31]",binds
16,"SEFIHHWTPPPS (not fully specified; also: displayed on M13 phage pIII, Selected in three rounds on His-PSMA; not tested singly; not shown: M13 phage coat protein III) [selected phage with insert SEQ ID NO 9]",binds
17,"AGFQHHPSFYRF (not fully specified, Selected in three rounds on His-PSMA; not tested singly; not shown: M13 phage coat protein III) [selected phage with insert SEQ ID NO 13]",binds

# Target: T1, His-PSMA (recombinant extracellular …)
# Experiment: ELISA, biotinylated peptide on immobilized PSMA against immobilized BSA
# Source text: (§1) Recombinant PSMA (0.625 µgs) and BSA (25 µgs/ml) were immobilized and indicated concentrations of the biotinylated […] […] Results are the mean binding in 4 replicate wells each ±S.D.
row,Binder,binding result
1,"WQPDTAHHWATLK(Biotin)-OH (N-terminus assumed; SMILES CC(C)C[C@H](NC(=O)[C@@H](NC(=O)[C@H](C)NC(=O)[C@H](Cc1c[nH]c2ccccc12)NC(=O)[C@H](Cc1c[nH]cn1)NC(=O)[C@H](Cc1c[nH]cn1)NC(=O)[C@H](C)NC(=O)[C@@H](NC(=O)[C@H](CC(=O)O)NC(=O)[C@@H]1CCCN1C(=O)[C@H](CCC(N)=O)NC(=O)[C@@H](N)Cc1c[nH]c2ccccc12)[C@@H](C)O)[C@@H](C)O)C(=O)N[C@@H](CCCCNC(=O)CCCC[C@@H]1SC[C@@H]2NC(=O)N[C@@H]21)C(=O)O, Synthetic, Fmoc chemistry; also called biotinylated monomeric peptide) [WQPDTAHHWATLK (Biotin) monomeric peptide]",binds

# Target: T1, His-PSMA (recombinant extracellular …)
# Experiment: ELISA, biotinylated peptide on immobilized PSMA or BSA
# Source text: as §1
row,Binder,binding result
1,QMARIPKRLARHK(Biotin) (also called control consisting of a positively charged 12 amino acid peptide) [non-selected control peptide QMARIPKRLARHK-biotin],no binding

# Target: T1, His-PSMA (recombinant extracellular …)
# Experiment: phage ELISA on immobilized His-PSMA against immobilized BSA, phage at 10^10 pfu/ml, anti-M13-HRP
row,Binder,fold higher binding to PSMA compared to BSA [fold]
1,"WQPDTAHHWATL (not fully specified, Whole M13 phage particle displaying the 12-mer; tested as phage, in pfu/ml; not shown: M13 phage coat protein III) [WQPDTAHHWATL (SEQ ID NO:1) phage]",~10
